Patent publication US8133482B2, “Activatable photodynamic therapy agents” (The Trustees of the University of Pennsylvania, priority 2003, dated 2012)
The star is where a group is joined. Mu = morpholinocarbonyl cap, O=C(N1CCOCC1)*; Dox = doxorubicin

What was measured:
[1] = photophysical properties of pyropheophorbide acid (1O2 yield); assay type: physicochemical
PSA = PSA (Homo sapiens, UniProt P07288); conditions: incubation with enzymatically active PSA, HPLC detection; cited from earlier work
Chain of PSA (P07288 25-261): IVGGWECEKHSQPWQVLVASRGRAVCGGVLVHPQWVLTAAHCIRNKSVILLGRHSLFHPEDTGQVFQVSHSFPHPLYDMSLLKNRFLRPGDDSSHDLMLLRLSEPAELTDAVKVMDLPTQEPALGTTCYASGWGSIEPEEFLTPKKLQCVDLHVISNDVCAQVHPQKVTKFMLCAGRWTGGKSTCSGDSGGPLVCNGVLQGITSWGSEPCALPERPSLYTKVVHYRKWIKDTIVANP

| Compound | 1O2 yield [1] [%] | hydrolysis by PSA (PSA) |
| --- | --- | --- |
| C=Cc1c(C)c2cc3nc(c4c5[nH]c(cc6nc(cc1[nH]2)C(C)=C6CC)c(C)c5C(=O)C4)[C@@H](CCC(=O)O)[C@@H]3C [Pyropheophorbide acid, pyropheophorbide acid] | 45 |  |
| Ac-HSSKLQ(SEQ ID NO:13)-Dox (Ac-HSSKLQ-Dox) |  | unable to hydrolyze |
| Mu-HS SKLQ(SEQ ID NO:13)-Leu-Dox (Mu-HSSKLQL-Dox) |  | resulted in production of Leu-Dox |
